# Measured values as given in paper PMC2841689.
# Biological target: N74D HIV-1 CA-NC complexes (HIV-1)
# Experiment: co-sedimentation
Substance,"fold difference in co-purification, wild-type over N74D CA-NC",fold more precipitated than by wild-type CA-NC complexes
"human CPSF6-358 (C-terminally truncated CPSF6), HA-tagged (from UniProt Q16630-2 1-358) (domain or fragment)",3.9 fold,
"rhesus TRIM5alpha, HA-tagged (from UniProt Q0PF16 1-497) (natural protein)",,2 fold
